{
  "source": "the nanobody polyreactivity screen of Harvey et al. (2022)",
  "data": [
    {"assay": "yeast display, Sf9 membrane polyspecificity reagent, FACS + sequencing; frameworks hold sequencing errors", "outline": "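Polyreactivity labels are assigned by the sorting gate from which each nanobody was recovered. The gates were low and high (top ~1%), set on anti-HA fluorescence for expression and streptavidin fluorescence for reagent binding. Before sorting, galactose-induced (36–48 hours) yeast display cells were stained for 1 hour at 4 °C with 10% biotinylated, detergent-solubilized Sf9 membrane reagent.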", "values": [
      {"sequence": "QVQLLESWGGLVQAGGSLRLSCAASGLIFYRNAMGWYRQAHGKERELVAAISVSGGSTYYADSVKGRFTISRDNAKNTVYLQMNRLKPEDTAVYYCAAKTWRSRGKEMDYWGQGTQVNVSS", "polyreactivity (PSR sort gate)": "high polyreactivity"},
      {"sequence": "QVQLLETGGGLVQAGASLRLSCAASGSTFEDNAMGWYRQAPGKERELVAAITSGGNTYYADSVKGRFTIARDNAKNTVYLPMNSLKPEDTAVYYCNAVPFYYVFDYWGQGTQVTVSS", "polyreactivity (PSR sort gate)": "low polyreactivity"},
      {"sequence": "QVQLLETGGGLVQAGGSLRLSCAASGSILRWYVRGWYRQAPGKERELVADIDSGGSTNYADSVKGRFTISRDNAKNTVFLQMNSLKPEDTAVYYCASDVPSRSRYGVYRRDGMDYWGQGTQVTVSS", "polyreactivity (PSR sort gate)": "low polyreactivity"},
      {"sequence": "QVQLLETGGGLVQAGGSLRLSCAPSGGIFGFNAMGWYRQAPGKERELVADISDGVRTNYADSVKGLFTISRDNAKTTVYLQMNRLKPEDTAVYYCATDGLFYVDGSWTLGYWGQGTQVTVSS", "polyreactivity (PSR sort gate)": "low polyreactivity"},
      {"sequence": "QVQLLETVGGLVQAGGSLRLSCASSGFTFGYYTMGWYRQAPGKERELVAAISSSGGRTYYADSVKGRFTISRDIAKNTVYLQMISLKPEDTALYYCNVYYISTDLYYWGQGTQVTVSS", "polyreactivity (PSR sort gate)": "high polyreactivity"},
      {"sequence": "QVQLLQTGGGLVQAGGSLRLSCAASGRIFVVNAMGWNRLAPGKEREMVADISSGVSTNYADSVKGRFTISRDNAKNTVYLQMNILKPEDTALYYCNSRFRFRYKFPSRNSWGQGTLVTVSS", "polyreactivity (PSR sort gate)": "high polyreactivity"},
      {"sequence": "QVQLLVTGGGLVQAGGTLRISCAASGSIFYSYAMGWYRQSPGKERELVAAITGGGSTNYADSVKGRFTISLDNAKNTVYLQMNSLKPEDTAVYYCATDLYPIGAVIRYDYWGQGTQVTVSS", "polyreactivity (PSR sort gate)": "low polyreactivity"},
      {"sequence": "QVQLQDSGGGLEQAGGSLRMSCAANGNIFDADIVGRYRQAQGKKRELVASITDGGITNYADSVKGRFTISRDNAKYTVYLQMNSQNPEDTAVYYCAAIAYPDIPTYFDYDSDFFYWGQGTQVTVSS", "polyreactivity (PSR sort gate)": "high polyreactivity"},
      {"sequence": "QVQLQDSGGGLVQAGGSLRLSCAASGTIFWYSDLGWYRQAPGKERKFVAGIGFGSNSNFADSVRGRFTISRDNAKNTVYLQMNSLKPEDTAVYYCAAVWFDYSTHRYWGQGTQVTVSS", "polyreactivity (PSR sort gate)": "high polyreactivity"},
      {"sequence": "QVQLQDSGGRLVQAGGSLRLSCAASGYIFGSCSMGWFRQSPGKVRELVATINNGSSTYYADSVKGRITISRDNAKNSVYLQMNSLKPEDTAVYYCAVSLYRLTFFYYWGQGNQVTVSS", "polyreactivity (PSR sort gate)": "high polyreactivity"},
      {"sequence": "QVQLQECGGGLVQAGGRLRLSCAASGNIFDADIMGWYRQAPGKERELVASVTDGGSTNYADSVKGRFTISRDNAKNTVYLQMISLTPEDTAVYYCAAIVYPDILTYFDYDYDYFYWGQGTQVTVGS", "polyreactivity (PSR sort gate)": "low polyreactivity"},
      {"sequence": "QVQLQECGGGLVQEGGSLRLSCAASGTYSNSVKWLYCQAPGKEREFVATIGVGGSTNYADSVKGRFTISRDIAKNSVYLQMNSLKPDDTAVYHCSAYGAASNFHYYRGQGTQVTVSS", "polyreactivity (PSR sort gate)": "low polyreactivity"},
      {"sequence": "QVQLQEGGGLVQAGGSLRLSCAASGYISSPPAMGWYRQAPGKERAFVATIADGTSTYYADSVKGRFTISRDNAKNTVYLQMNSLKTEDTEVYYCAAAYNTEFYLSYWGQGTQVTVIS", "polyreactivity (PSR sort gate)": "high polyreactivity"},
      {"sequence": "QVQLQEGGGLVQAGGSLRLSCAASGYISSRPAMGWYRQAPRKERAFVATIADGTSTYYADSVKGRFTISRDNAKNTVYLQMNSLKPEDTAVYYCAAAYNTEFYLSYWGQGTQVTVSS", "polyreactivity (PSR sort gate)": "high polyreactivity"},
      {"sequence": "QVQLQEGRGLVQAGGSLRLSSAASGYISSRPAMGWYRQAPCKERSFVATIADGTSTYYADSVKGRFTISRDNAINTVYLQMNSLKPEDTAVYYCAAAYNTEFYLSYWGQGTQVTVSC", "polyreactivity (PSR sort gate)": "high polyreactivity"},
      {"sequence": "QVQLQERGDGLLQAVGSLRLSFAESGYISGYYYMGWYRQAPGKDRELVAGIDAFGSSTNYADCVKGRFTISRDNAKNTVYLEMNSLKPEDTAVYYCAASPDGERLFSYWGQGTQVTVSS", "polyreactivity (PSR sort gate)": "low polyreactivity"},
      {"sequence": "QVQLQERGGGLVQAGGSLCLSCAASGTIFFDGDMGWYRQAPGKEREFVAAINPGGSAYYADSVKGRLPLAAITHTVYLQMNSLKPEDTAVYYCAAKLFDVYGYYYWGQGTHVTVSS", "polyreactivity (PSR sort gate)": "low polyreactivity"},
      {"sequence": "QVQLQERGGGLVQAGGSLCLTCEASGTIFYDGDMGLYRQAPGKEREFVAAINPGGSAYYADSVKGRLPLAAITHTVYLQMFSLKPEDTAVYYCAAEQITGWSRVWVSWYDYWGQGTQVTVSS", "polyreactivity (PSR sort gate)": "low polyreactivity"},
      {"sequence": "QVQLQERGGGLVQAGGSLRLSCAASGIIYADGFMGLYRQAPGKELEFVANITGGGTSNYADSVKGGFTISRDNAKNTVYLQMNSLKPEDTAVYFCAVYFAWTIGFTYWGQGTQVTVSS", "polyreactivity (PSR sort gate)": "high polyreactivity"},
      {"sequence": "QVQLQERGGGLVQVGGSQRLSCAASGNIFYNYAMGWYRHAQGKEREFDATINHGTSINYADSVKGRFTISRDNAKNSVYLQMNSLKPEDTAVYYCAADLSWTDNLFYWGQGTQVTVSS", "polyreactivity (PSR sort gate)": "low polyreactivity"},
      {"sequence": "QVQLQERGGGLVQVRGSLRLSCAASGTIIIYGFMGWNRQAPGKERELVASINLGGITNYADSVTGRFTISRDNAKNTVYRQMISLKPEDNAVYYCAAYVVTGQNYGYWCQGTQVTVSS", "polyreactivity (PSR sort gate)": "low polyreactivity"},
      {"sequence": "QVQLQERGGGQVQAGGSLRLSCAASGTIFLYAFMGWYRQAPGKERELVAAIDVGTTTNYADSVKGRFTISRDNAKNTVYLQMNSLKPEDTAVYYCAANLGYLDDLGYWGQGTQVTVSS", "polyreactivity (PSR sort gate)": "low polyreactivity"},
      {"sequence": "QVQLQESAGGLVKAGGSLRLSCAASGNISNHNDMRWYRQAPGKEREFVAGITAGGNTNYADSVKGRFTISRDNAKNTVYLQMNSLKPEDTAVYYCAAYPDYAKSYGYWGQGTQATVSS", "polyreactivity (PSR sort gate)": "low polyreactivity"},
      {"sequence": "QVQLQESAGGLVQAGGSLRLRCSASGYISCDASMGWYRQAPGKERELAASITQGSSTNYADSVKGRFTIRDNAKNTVYLQMNSLKPEDTAVCYCAVTYPYWGDYTYWGQGTQVTVSS", "polyreactivity (PSR sort gate)": "low polyreactivity"},
      {"sequence": "QVQLQESAGGLVQAGGSLRLSCAASGTISTDSYMGWYRQAPGKERKFVATIGYGGITYYADSVKGRSTISRDSAKNTVYLQMNSLKPEDTAVYYCAVNSYYPDHYWYWGRGTQVTVSS", "polyreactivity (PSR sort gate)": "high polyreactivity"},
      {"sequence": "QVQLQESAGGLVQAGGSLRMSCAASGTIFSEANMGWYRQAPGKERELVATIGQGSTTNYADSVKGRFTISRDNAKNTVYLQMNSLKPEETAVYYCAVVTVDPVGFVYWGQGTQVTVSS", "polyreactivity (PSR sort gate)": "low polyreactivity"},
      {"sequence": "QVQLQESCGGLVQAGGSLRLSCAASGSIFDGFNMGWYRQAPGKEREFVAAISYGASTYYADSVKGRFTVSRDNAKNSVYLQMNSLKPEDTAVYYCAVYDELYHVLVYWGRGTQVTVSS", "polyreactivity (PSR sort gate)": "low polyreactivity"},
      {"sequence": "QVQLQESGAGLVQAGGRLRLSCASSGTITVLYKMGWFRQAPGKEREFVASINYGTSTYYADSVKGRFTVSRDSATNHEYLQMISLKPEDTAVYYCAAAYRWQDVYRYWGQGSQVTVSS", "polyreactivity (PSR sort gate)": "low polyreactivity"},
      {"sequence": "QVQLQESGAGLVQAGGSLRLCCAASGSIFYVYGMGWYRQAPGKERELVAGINAGTNTNYADSVRGRFTISRDNAKNTVHLQMNSLKPEDTAVYYCAADGNGYQAHEYWGQGTQVTVSS", "polyreactivity (PSR sort gate)": "high polyreactivity"},
      {"sequence": "QVQLQESGDGLVQAVGSLRLSCAASGYISGYNYMGWYRQAPGKERELVAGIDAFGSSTNYADCVKGRFTISRDNAKNTVYLQMNSPKPEDTAVYYCAAEYDDWDYLWYWGQGTQVTVSS", "polyreactivity (PSR sort gate)": "low polyreactivity"},
      {"sequence": "QVQLQESGDGLVQAVGSLRLSCAASGYISGYYYMGWYRQAPGKERELVAGIEAFGSSTNYADCVKGRFTISRDNAKNTVYLQMNSPKPEDTAVYYCAAEYDDWDYHWYWGQGTQVTVSS", "polyreactivity (PSR sort gate)": "low polyreactivity"},
      {"sequence": "QVQLQESGGCLVQAGGSLRLSCAASGPISRRSTMGWYSQAPGKERELVTAITRGTNTNYADSVKGRFTISRDNAKNTEYLQMNSLKTEDTAVYYCAAYGVLKPSRGDAVFHRYWGQGTQVTVSS", "polyreactivity (PSR sort gate)": "low polyreactivity"},
      {"sequence": "QVQLQESGGCLVQAGGSLRLSCAASGTNSDSGLMGWYRQAPGKERELVAGISSGGITTYADSVKGRFTISRDNAKNTVYLQMNSLKPEDTAVYWGQGTQVTVSC", "polyreactivity (PSR sort gate)": "low polyreactivity"},
      {"sequence": "QVQLQESGGGLEQAGGSLRLSCAATGTIFTDRFMGWYRQAPGKERELVAGISPGTSSNSADSVKGRFTISRDNAKNTVYLQMNSLKPEDTAVYYCAADWSTGNTLPYWGQGTQVTVSS", "polyreactivity (PSR sort gate)": "high polyreactivity"},
      {"sequence": "QVQLQESGGGLEQEGGSLRLSCAASGNISPPADMGWYRQAAGKERELVASIGTGGTTNYADSVKGRFNISRDNAKNTVYLQMNSLKPDDTSVYYCAAVRYEYNPYDYLGQGTQVTVSS", "polyreactivity (PSR sort gate)": "low polyreactivity"},
      {"sequence": "QVQLQESGGGLGQAGRSLRHSFAASGNIFDAGIMGWYRQAPGEERELVACITDGGSTNYADSVKRRFTISRDNAKNTVYLQMNSQKPEDTAVYYCAASWDTIGLFAYWGQGTQVTVSS", "polyreactivity (PSR sort gate)": "high polyreactivity"},
      {"sequence": "QVQLQESGGGLMQAGGNLRLSCAASGYISTHYDMDWYRQAPGKERELVARIDDGAITNYADSVKGRFTISRDNAKNTVYLQMNSLKPEDTAVYYCAVSSGDDYYHDYWGQGTQVTVSS", "polyreactivity (PSR sort gate)": "low polyreactivity"},
      {"sequence": "QVQLQESGGGLVHAGGSLRLSCAASGTISFINMMGWYRQAPGRERELVASINFGANTNYADSVKGRFTISRDNAKNTVYLQMNSLKPEDTAVYYCAVYDFDAYTLYYWGQGTLVTVSS", "polyreactivity (PSR sort gate)": "high polyreactivity"},
      {"sequence": "QVQLQESGGGLVHAGGSLRLSCAASVTISFINMMGWYRQAPGRERELDASINFGANTNYADSVKGRFTISRDNAKNSVYLQMNSLKPEDTAVYYCAVYDFDAYTLYYWGQGTLVTVSS", "polyreactivity (PSR sort gate)": "high polyreactivity"},
      {"sequence": "QVQLQESGGGLVLAGGSLRLSCAESGYISWSFTMGWYRKAPGKEREFVAGITYGGITYYADSVKGRFTISRDNAKNTVYLQMNSLKPEDTAVYYCAAPQTYPYVYVYWGQGTQVTVSS", "polyreactivity (PSR sort gate)": "high polyreactivity"},
      {"sequence": "QVQLQESGGGLVLAGGSLRLSCSASGNISVYGSMGWYRQAPGKEREFVATIDPGTNTNYADSVKDRFTISRDNAKNTVYLQMNSLKPEDTAVYYGAVEAGSDWPYPYWGQGTQVTVSS", "polyreactivity (PSR sort gate)": "low polyreactivity"}
    ]}
  ]
}
